Assay [1] has as its target Ssa1 (Saccharomyces cerevisiae, UniProt P10591). The assay is described as follows: fluorescence polarization, displacement of ATP-FAM. The assay is classed as binding. To be noted: 50 uM ATP, 1 uM Ssa1, 20 nM ATP-FAM, pH 7.5, 25 °C.
Assay [2] deals with T1, Msi3 (Candida albicans, UniProt Q96VB9).
T1 sequence (Q96VB9 1-701): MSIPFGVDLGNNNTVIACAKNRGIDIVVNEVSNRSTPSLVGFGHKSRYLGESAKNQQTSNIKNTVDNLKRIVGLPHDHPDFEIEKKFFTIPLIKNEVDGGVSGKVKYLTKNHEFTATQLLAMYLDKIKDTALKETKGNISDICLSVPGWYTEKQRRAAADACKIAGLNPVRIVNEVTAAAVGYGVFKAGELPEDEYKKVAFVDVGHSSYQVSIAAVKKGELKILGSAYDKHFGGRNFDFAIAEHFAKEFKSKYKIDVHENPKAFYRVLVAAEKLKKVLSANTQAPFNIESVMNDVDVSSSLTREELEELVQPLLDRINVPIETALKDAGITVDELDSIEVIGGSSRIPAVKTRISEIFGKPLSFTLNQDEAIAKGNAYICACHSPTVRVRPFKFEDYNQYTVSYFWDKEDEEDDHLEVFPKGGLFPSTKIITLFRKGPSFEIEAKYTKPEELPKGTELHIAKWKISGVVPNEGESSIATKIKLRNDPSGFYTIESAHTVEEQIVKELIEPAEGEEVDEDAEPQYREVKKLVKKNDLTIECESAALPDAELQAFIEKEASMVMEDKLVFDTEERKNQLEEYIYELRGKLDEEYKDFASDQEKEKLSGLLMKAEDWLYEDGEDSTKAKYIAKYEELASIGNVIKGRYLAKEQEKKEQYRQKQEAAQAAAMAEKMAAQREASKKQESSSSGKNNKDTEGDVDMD
In words: limited trypsin digest. Conditions: 1 mM ATP, pH 7.5, 10 mM Mg(OAc)2, 25 °C. Type of assay: binding.

For assay [3], the target named is T2, Msi3, the sole Hsp110 in Candida albicans, wild type (Candida albicans, UniProt Q96VB9 1-701).
T2 sequence (looked up): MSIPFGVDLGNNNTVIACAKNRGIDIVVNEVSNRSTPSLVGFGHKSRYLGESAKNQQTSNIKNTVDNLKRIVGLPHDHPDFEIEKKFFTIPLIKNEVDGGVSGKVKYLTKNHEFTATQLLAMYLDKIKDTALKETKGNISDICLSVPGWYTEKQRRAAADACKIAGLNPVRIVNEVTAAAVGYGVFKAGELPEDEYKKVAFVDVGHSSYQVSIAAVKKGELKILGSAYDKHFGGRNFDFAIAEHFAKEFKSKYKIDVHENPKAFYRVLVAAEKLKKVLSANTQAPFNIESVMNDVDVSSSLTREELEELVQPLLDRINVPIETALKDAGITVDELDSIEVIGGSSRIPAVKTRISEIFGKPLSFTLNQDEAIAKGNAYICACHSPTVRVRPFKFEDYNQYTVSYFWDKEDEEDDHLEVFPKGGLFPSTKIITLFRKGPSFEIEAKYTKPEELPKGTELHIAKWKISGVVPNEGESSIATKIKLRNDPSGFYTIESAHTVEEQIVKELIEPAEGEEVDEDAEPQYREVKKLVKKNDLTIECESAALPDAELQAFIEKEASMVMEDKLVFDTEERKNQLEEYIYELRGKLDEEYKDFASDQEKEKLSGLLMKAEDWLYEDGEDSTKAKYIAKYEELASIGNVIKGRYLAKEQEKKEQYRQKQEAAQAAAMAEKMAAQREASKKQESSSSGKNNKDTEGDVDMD
The assay is described as follows: fluorescence polarisation. Background: Polarisation of emitted light reports the rotation of a fluorescent probe.

The target of assay [4] is T3, Msi3 I164D (Candida albicans, UniProt Q96VB9 1-701, I164D).
T3 sequence (looked up): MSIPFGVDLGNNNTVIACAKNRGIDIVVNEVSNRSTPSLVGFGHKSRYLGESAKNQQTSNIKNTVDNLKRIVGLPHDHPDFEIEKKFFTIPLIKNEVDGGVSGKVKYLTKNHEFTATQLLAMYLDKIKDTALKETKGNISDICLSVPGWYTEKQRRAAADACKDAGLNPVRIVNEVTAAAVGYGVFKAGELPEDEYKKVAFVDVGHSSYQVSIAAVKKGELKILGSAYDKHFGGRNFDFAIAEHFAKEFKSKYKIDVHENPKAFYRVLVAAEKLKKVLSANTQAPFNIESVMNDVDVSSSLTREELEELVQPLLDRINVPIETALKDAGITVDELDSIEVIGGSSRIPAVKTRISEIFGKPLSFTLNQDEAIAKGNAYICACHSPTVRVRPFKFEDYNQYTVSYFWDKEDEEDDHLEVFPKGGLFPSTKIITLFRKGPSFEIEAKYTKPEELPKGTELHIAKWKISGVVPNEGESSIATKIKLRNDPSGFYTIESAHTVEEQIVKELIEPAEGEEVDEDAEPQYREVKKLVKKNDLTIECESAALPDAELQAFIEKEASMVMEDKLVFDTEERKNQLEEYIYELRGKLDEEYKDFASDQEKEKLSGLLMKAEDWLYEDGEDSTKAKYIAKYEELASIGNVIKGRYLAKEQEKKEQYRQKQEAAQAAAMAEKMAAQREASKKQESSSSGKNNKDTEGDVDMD
In words: fluorescence polarisation.

Assay [5] has as its target T4, Msi3 R235E (Candida albicans, UniProt Q96VB9 1-701, R235E).
T4 sequence (looked up): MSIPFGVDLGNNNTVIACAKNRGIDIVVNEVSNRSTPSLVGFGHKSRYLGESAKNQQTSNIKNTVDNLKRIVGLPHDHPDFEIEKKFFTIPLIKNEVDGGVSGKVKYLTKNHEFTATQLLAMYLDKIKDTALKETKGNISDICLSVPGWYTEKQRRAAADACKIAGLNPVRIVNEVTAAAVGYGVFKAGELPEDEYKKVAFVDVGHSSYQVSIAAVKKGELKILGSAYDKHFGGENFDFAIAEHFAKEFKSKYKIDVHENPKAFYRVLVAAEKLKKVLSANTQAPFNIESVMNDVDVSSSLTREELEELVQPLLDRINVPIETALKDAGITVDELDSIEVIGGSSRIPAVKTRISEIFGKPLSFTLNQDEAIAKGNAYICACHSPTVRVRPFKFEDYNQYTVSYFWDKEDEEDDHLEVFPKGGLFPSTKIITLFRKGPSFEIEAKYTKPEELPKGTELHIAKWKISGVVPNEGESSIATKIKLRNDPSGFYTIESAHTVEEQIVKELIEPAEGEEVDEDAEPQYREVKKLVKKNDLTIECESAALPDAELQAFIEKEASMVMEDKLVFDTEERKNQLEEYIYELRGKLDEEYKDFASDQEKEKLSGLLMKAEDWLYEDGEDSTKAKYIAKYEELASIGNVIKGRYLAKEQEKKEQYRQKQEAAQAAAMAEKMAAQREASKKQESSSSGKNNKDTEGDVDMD
In words: fluorescence polarisation.

Assay [6] addresses Msi3-Ssa1 complex (Candida albicans | S. cerevisiae, UniProt Q96VB9 1-701; P10591 1-642). The assay is described as follows: native gel or EMSA. A general note: A gel shift assay detects complexes by their altered migration in electrophoresis.
Assay [7] deals with Ssa1, the major Hsp70 in the cytosol of S. cerevisiae (S. cerevisiae, UniProt P10591 1-642). In words: native gel or EMSA.

Where no end group is shown, it is not given here. fluorescein = fluorescein label at the N-terminus

Chain of Ssa1, the major Hsp70 in the cytosol of S. cerevisiae (P10591 whole entry): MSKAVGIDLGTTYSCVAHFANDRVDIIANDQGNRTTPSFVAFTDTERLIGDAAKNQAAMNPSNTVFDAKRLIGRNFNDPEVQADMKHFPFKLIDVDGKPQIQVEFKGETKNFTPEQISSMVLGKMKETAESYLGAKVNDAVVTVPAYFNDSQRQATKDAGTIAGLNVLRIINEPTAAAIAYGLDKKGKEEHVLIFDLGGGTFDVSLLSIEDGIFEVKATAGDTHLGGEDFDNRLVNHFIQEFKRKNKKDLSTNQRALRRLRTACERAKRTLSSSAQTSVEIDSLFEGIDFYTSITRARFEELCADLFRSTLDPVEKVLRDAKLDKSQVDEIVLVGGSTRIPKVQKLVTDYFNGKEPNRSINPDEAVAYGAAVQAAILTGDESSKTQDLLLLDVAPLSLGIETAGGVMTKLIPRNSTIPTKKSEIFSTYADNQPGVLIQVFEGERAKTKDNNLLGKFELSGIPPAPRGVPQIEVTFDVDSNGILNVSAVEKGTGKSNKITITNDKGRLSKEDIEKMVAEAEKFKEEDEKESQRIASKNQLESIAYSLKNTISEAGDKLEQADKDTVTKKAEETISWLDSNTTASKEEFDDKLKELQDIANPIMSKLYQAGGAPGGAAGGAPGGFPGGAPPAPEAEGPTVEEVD
Chain of Msi3-Ssa1 complex (P10591 whole entry, one chain of several): as the sequence (P10591 whole entry) above
Chain of Ssa1 (P10591 2-642): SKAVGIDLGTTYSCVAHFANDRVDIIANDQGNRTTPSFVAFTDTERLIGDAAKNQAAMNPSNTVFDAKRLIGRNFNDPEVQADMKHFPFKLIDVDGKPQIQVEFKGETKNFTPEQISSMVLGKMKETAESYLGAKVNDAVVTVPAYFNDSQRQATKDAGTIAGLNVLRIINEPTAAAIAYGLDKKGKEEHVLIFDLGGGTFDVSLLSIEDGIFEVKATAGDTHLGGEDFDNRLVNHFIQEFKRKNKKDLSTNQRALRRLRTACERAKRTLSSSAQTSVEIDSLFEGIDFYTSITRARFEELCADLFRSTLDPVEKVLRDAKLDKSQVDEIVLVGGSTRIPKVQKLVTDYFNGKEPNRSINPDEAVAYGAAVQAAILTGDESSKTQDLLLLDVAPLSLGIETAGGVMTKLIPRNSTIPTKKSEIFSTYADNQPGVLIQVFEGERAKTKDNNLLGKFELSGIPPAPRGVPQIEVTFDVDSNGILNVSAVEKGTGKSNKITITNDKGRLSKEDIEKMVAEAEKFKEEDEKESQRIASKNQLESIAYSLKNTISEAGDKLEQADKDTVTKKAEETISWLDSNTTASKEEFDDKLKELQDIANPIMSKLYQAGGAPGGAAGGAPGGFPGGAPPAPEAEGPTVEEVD

As to `Nc1ncnc2c1ncn2[C@@H]1O[C@H](COP(=O)(O)OP(=O)(O)OP(=O)(O)O)[C@@H](O)[C@H]1O` [ATP], the “fluorescence polarization, displacement of ATP-FAM” value in assay [1] was “the bound ATP-FAM was slowly replaced by the unlabeled ATP”. Moreover, the “limited trypsin digest (ATP-induced conformational change)” value in assay [2] is “two signature proteolytic bands were observed in the presence of ATP for the WT Msi3”.

B1: TRP2_181 peptide (peptide)
peptide: fluorescein-VYDFFVWLHYY
B1: the binding result in assay [3], in assay [4] and in assay [5] was “binds” in each case.

B2: NR peptide (peptide)
peptide: fluorescein-NRLLLTG
Regarding B2, the binding result in assay [6] and in assay [7] was “binds” each time.

The values above are taken from article PMC8424595 (The Journal of Biological Chemistry, 2021).
